Reference: US20250074988A1 (SHANGHAI HUAOTA BIOPHARMACEUTICAL, published 2025)

Experiments:
[1] = molecular target: T1, human PD-L1-moFc recombinant protein (human); experiment: flow cytometry, blocking of PD-L1-moFc binding to CHO-K1-huPD-1 cells
T1 construct: also called free PD-L1
Experimental: The antibodies to be tested were diluted with 3-fold gradient, added at 20 μL/well into the 96-well plate with the antigen added, mixed well, and incubated at room temperature for 15 min. CHO-K1-huPD-1 cells overexpressing human PD-1 were added at 2×10⁴/well into the 96-well plate pre-incubated with antigen-antibody, mixed well, and incubated at room temperature for 15 min. The mixture was centrifuged at 300 g for 5 min, the supernatant was removed, and the cells were washed twice with FACS buffer. Anti-moFc-Alexa 488 (Item No.: 115-545-071, Jackson) secondary antibodies were diluted at 1:300, added, mixed well, and incubated at room temperature for 15 min. The cells were washed three times and measured on instrument for the fluorescence intensity on their surfaces.

[2] = molecular target: T2, recombinant human PD-L1 protein (Item No. 10084-H08H, Sino Biological) (human, UniProt Q9NZQ7 19-238); experiment: SPR, humanization screening
T2 construct: Bought protein; also called huPD-L1; human PD-L1 antigen
T2 sequence (Q9NZQ7 19-238 limits assumed): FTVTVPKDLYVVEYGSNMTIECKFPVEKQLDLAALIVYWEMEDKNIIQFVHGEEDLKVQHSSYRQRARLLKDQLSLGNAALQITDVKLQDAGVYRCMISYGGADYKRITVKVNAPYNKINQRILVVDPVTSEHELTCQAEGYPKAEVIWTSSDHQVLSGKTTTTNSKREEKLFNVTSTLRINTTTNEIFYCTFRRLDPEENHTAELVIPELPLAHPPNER

[3] = molecular target: T2, recombinant human PD-L1 protein (Item …); experiment: SPR, Biacore 8K, antibody captured on anti-human chip, huPD-L1 analyte, 1:1 model
Experimental: The Anti-Human Capture-CM5 chips (Item No.: BR-1005-30, GE) were prepared according to the coupling method of the Human Antibody Captrue Kit (Item No.: BR-1008-39, GE) and the amino coupling kit (Item No.: BR-1000-50, GE). The chips were equilibrated at room temperature for 20-30 min and assembled into the Biacore 8K instrument. B5D1 was diluted to the experimental working concentration with the equilibrium buffer. The antigen was diluted to 50 nM with the equilibrium buffer, and then diluted to give samples with 7 concentration gradients by 3× serial dilution, and 2 samples with zero concentration (i.e. the equilibrium buffer) and a duplicate sample with one concentration (typically, a duplicate sample with the minimum concentration) were set. According to the antibody, the antigen huPD-L1 (Item No.: 10084-H08H, Sino Biological), and the regeneration order, the samples with 10 antigen concentrations (2 with zero concentration, 7 with gradient concentrations and 1 with duplicate concentration) were subject to experimental analysis with an antigen injection flow rate of 30 μl/min, the binding time of 120 seconds, and the dissociation time of 600 seconds.

[4] = molecular target: T3, human PD-L1 on CHO-K1-huPD-L1 cells (human, UniProt Q9NZQ7 19-290); experiment: flow cytometry on CHO-K1-huPD-L1 cells; parent chimeric antibody
T3 construct: whole, on cells; also called cell surface PD-L1; CHO-K1-huPD-L1 cells overexpressing human PD-L1
T3 sequence (Q9NZQ7 19-290): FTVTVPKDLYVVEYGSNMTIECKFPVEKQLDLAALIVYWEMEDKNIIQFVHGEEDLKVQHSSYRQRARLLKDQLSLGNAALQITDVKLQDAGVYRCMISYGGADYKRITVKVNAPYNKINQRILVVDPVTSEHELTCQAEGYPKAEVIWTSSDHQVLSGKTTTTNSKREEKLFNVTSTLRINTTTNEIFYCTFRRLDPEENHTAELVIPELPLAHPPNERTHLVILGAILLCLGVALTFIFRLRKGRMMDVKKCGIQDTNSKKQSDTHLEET
Experimental: CHO-K1-huPD-L1 cells overexpressing human PD-L1 were plated in a 96-well plate at 2×10⁴/well, and the 3-fold serial gradient dilutions of the samples to be tested were added at 20 μl/well, and co-incubated with the cells at room temperature for 30 min. The cells were washed by centrifugation to remove unbound antibodies, and 20 μl of R-Phycoerythrin AffiniPure Goat Anti-Human IgG, Fcγ Fragment Specific (Item No.: 109-115-098, Jackson ImmunoResearch; diluted with 1% (w/v) BSA-PBS at 1:200) fluorescent secondary antibodies were added to each well, and incubated for 15 min. The cells were then washed twice, resuspended in 100 μl of 1% (w/v) BSA-PBS, and detected for their fluorescence intensity at 585 nm by flow cytometry (BD, FACS Cantoll) under 488 nm excitation.

[5] = molecular target: T2, recombinant human PD-L1 protein (Item …); experiment: SPR, Biacore 8K, antibody captured as ligand, PD-L1 analyte, 1:1 model
[6] = molecular target: T2, recombinant human PD-L1 protein (Item …); experiment: ELISA, humanization screening
[7] = molecular target: T3, human PD-L1 on CHO-K1-huPD-L1 cells; experiment: cell-based or functional assay

T1 sequence (chain, as listed by the source limits assumed): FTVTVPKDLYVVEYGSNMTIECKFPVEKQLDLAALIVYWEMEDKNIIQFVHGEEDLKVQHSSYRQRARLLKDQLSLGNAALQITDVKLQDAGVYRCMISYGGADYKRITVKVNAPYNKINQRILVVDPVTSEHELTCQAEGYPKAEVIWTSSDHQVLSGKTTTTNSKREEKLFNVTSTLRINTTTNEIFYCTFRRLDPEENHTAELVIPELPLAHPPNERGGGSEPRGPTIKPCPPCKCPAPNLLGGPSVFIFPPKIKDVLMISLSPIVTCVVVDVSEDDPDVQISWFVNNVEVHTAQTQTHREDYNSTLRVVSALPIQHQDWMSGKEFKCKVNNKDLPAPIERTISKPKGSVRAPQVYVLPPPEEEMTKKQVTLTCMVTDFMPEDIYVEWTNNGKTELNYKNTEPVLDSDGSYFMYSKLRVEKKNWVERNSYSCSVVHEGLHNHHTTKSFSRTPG

B1: chimeric antibody 900245 (antibody, V domains shown)
VH: QIQLQQSGPELVKPGASVKISCKASGYTFTDYYINWVKQRPGQGLEWIGWIYLGSGNAKYNEKFKGKATLTVDTSSSTAYMHLSSLTSEDSAVYFCARCVGTYWYFDVWGAGTTVTVSS
VL: QILLTQSPATMSASPGEKVTMTCSASSSVSYMHWYQQKPGSSPKPWIYDTSNVASGFPARFSGSGSGTSYSLIISSMEAEDAATYYCHQRSSYPWTFGGGTKLEIK
notes: also called parent chimeric antibody; anti-PD-L1 human-mouse chimeric antibody
- IC50 [1]: 2.84 µg/mL
- Kd [2]: 720 pM
- Kd [3]: 77.3 pM
- koff [3]: 9.54e-05 s⁻¹
- kon [3]: 1.24e+06 M⁻¹ s⁻¹
- EC50 [4]: 0.125 µg/mL
- Kd [5]: 346 pM
- koff [5]: 0.000127 s⁻¹
- kon [5]: 368000 M⁻¹ s⁻¹
- EC50 [6]: 0.499 µg/mL
- EC50, T cell activation (NFAT-luciferase RLU, Jurkat-NFAT-PD-1-5B8 effector cells with CHO-K1-OS8-PD-L1-8D6 target cells) [7]: 0.287 µg/mL
